Assay results: publication PMC10661694, “Architecture and regulation of a GDNF-GFRα1 synaptic adhesion assembly” (Nature Communications, 2023)

T1: human GDNF structured region, residues 110-211 (hGDNF^mat) (human, UniProt P39905 110-211)
T1 chain: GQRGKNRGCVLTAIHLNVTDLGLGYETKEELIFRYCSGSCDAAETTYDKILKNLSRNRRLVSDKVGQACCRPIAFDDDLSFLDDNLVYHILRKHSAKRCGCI

T2: full length, GPI-anchored rat GFRα1 (mGFRα1^FL; HA-rGFRα1^1-468) (rat) (UniProt Q62997)
T2 sequence (chain, GPI-anchor): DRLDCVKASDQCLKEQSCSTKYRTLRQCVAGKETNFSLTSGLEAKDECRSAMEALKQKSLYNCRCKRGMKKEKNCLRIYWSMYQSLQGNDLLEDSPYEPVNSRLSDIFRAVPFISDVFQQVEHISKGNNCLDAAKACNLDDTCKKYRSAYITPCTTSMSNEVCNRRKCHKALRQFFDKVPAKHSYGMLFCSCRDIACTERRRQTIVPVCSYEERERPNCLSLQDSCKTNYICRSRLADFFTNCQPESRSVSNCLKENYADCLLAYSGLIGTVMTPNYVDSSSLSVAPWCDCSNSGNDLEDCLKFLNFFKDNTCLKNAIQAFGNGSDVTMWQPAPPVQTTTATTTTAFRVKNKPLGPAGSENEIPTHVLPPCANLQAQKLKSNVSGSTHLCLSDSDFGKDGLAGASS

B1: zebrafish GFRα1 residues 20-353 (zGFRα1^D1-D3, lacking the GPI-anchor); ordered portion in the crystal zGFRα1^D2-D3 (domain or fragment, UniProt Q98TT9 144-353, looked up)
chain: EPALAKENNCLNAAKACNLNDTCKKYRSAYISPCTSRVSTAEVCNKRKCHKALRQFFDKVPPKHSYGMLYCSCPLGDQSACSERRRQTIVPACSYEDKERPNCLTLQVSCKTNYICRSRLADFFTNCQPEPLSLSGCLKENYADCLLSYSGLIGTVMTPNYLRSPKISVSPFCDCSSSGNSKEECDRFTEFFTDNACLRNAIQAFGNGTD
modifications: N-linked glycans (8 resolved for the 10 zGFRα1 protomers)
notes: GFRα1a, zebrafish, residues 20-353; In the crystal only D2-D3 is present (D1 clipped)
B2: hGFRα1^D1-CT-K251E (protein)
chain: DRLDCVKASDQCLKEQSCSTKYRTLRQCVAGKETNFSLASGLEAKDECRSAMEALKQKSLYNCRCKRGMKKEKNCLRIYWSMYQSLQGNDLLEDSPYEPVNSRLSDIFRVVPFISDVFQQVEHIPKGNNCLDAAKACNLDDICKKYRSAYITPCTTSVSNDVCNRRKCHKALRQFFDKVPAKHSYGMLFCSCRDIACTERRRQTIVPVCSYEEREKPNCLNLQDSCETNYICRSRLADFFTNCQPESRSVSSCLKENYADCLLAYSGLIGTVMTPNYIDSSSLSVAPWCDCSNSGNDLEECLKFLNFFKDNTCLKNAIQAFGNGSDVTVWQPAFPVQTTTATTTTALRVKNKPLGPAGSENEIPTHVLPPCANLQAQKLKSNVSGNTHLCISNGNYEKEG
B3: human GFRα1 residues 25-424 (hGFRα1^D1-CT) (domain or fragment)
chain: DRLDCVKASDQCLKEQSCSTKYRTLRQCVAGKETNFSLASGLEAKDECRSAMEALKQKSLYNCRCKRGMKKEKNCLRIYWSMYQSLQGNDLLEDSPYEPVNSRLSDIFRVVPFISDVFQQVEHIPKGNNCLDAAKACNLDDICKKYRSAYITPCTTSVSNDVCNRRKCHKALRQFFDKVPAKHSYGMLFCSCRDIACTERRRQTIVPVCSYEEREKPNCLNLQDSCKTNYICRSRLADFFTNCQPESRSVSSCLKENYADCLLAYSGLIGTVMTPNYIDSSSLSVAPWCDCSNSGNDLEECLKFLNFFKDNTCLKNAIQAFGNGSDVTVWQPAFPVQTTTATTTTALRVKNKPLGPAGSENEIPTHVLPPCANLQAQKLKSNVSGNTHLCISNGNYEKEG
B4: hGFRα1^D1-CT-K251E L287E (protein)
chain: DRLDCVKASDQCLKEQSCSTKYRTLRQCVAGKETNFSLASGLEAKDECRSAMEALKQKSLYNCRCKRGMKKEKNCLRIYWSMYQSLQGNDLLEDSPYEPVNSRLSDIFRVVPFISDVFQQVEHIPKGNNCLDAAKACNLDDICKKYRSAYITPCTTSVSNDVCNRRKCHKALRQFFDKVPAKHSYGMLFCSCRDIACTERRRQTIVPVCSYEEREKPNCLNLQDSCETNYICRSRLADFFTNCQPESRSVSSCLKENYADCLEAYSGLIGTVMTPNYIDSSSLSVAPWCDCSNSGNDLEECLKFLNFFKDNTCLKNAIQAFGNGSDVTVWQPAFPVQTTTATTTTALRVKNKPLGPAGSENEIPTHVLPPCANLQAQKLKSNVSGNTHLCISNGNYEKEG
B5: hGFRα1^D1-CT-L287E (protein)
chain: DRLDCVKASDQCLKEQSCSTKYRTLRQCVAGKETNFSLASGLEAKDECRSAMEALKQKSLYNCRCKRGMKKEKNCLRIYWSMYQSLQGNDLLEDSPYEPVNSRLSDIFRVVPFISDVFQQVEHIPKGNNCLDAAKACNLDDICKKYRSAYITPCTTSVSNDVCNRRKCHKALRQFFDKVPAKHSYGMLFCSCRDIACTERRRQTIVPVCSYEEREKPNCLNLQDSCKTNYICRSRLADFFTNCQPESRSVSSCLKENYADCLEAYSGLIGTVMTPNYIDSSSLSVAPWCDCSNSGNDLEECLKFLNFFKDNTCLKNAIQAFGNGSDVTVWQPAFPVQTTTATTTTALRVKNKPLGPAGSENEIPTHVLPPCANLQAQKLKSNVSGNTHLCISNGNYEKEG
B6: rat GDNF (rGDNF) (ligand)
chain: SPDKQAAALPRRERNRQAAAASPENSRGKGRRGQRGKNRGCVLTAIHLNVTDLGLGYETKEELIFRYCSGSCEAAETMYDKILKNLSRSRRLTSDKVGQACCRPVAFDDDLSFLDDSLVYHILRKHSAKRCGCI
B7: zebrafish GDNF residues 134-235 (mature form, zGDNF^mat), crystallised in complex with zGFRα1^D1-D3 (ligand, UniProt Q98TU0 134-235, looked up)
chain: RVKGQGRGCLLKEIHLNVTDLDLGYRTKEELIFRYCSGPCHDAETNYDKILNNLTHNKKLDKDTPSRTCCRPIAFDDDISFLDDSLEYHTLKKHSAKKCACV
modifications: N-linked glycan at the N-glycosylation site of all zGDNF protomers
notes: GDNF, zebrafish, residues 134-235 (mature form); the methods give 135-235 for zGDNF^mat; Covalent dimer
B8: zebrafish GDNF mature structured region, residues 135-235 (zGDNF^mat) (ligand, UniProt Q98TU0 135-235, looked up)
chain: VKGQGRGCLLKEIHLNVTDLDLGYRTKEELIFRYCSGPCHDAETNYDKILNNLTHNKKLDKDTPSRTCCRPIAFDDDISFLDDSLEYHTLKKHSAKKCACV
notes: GDNF, zebrafish, mature structured region, residues 135-235; The co-expressed form is called untagged; the methods describe no separate untagged construct, so both are kept as one molecule; also called untagged zGDNF^mat; soluble zGDNF^mat; source: Expi293F, secreted; not shown: His6, N-terminal, cleaved
B9: zebrafish GFRα1 residues 144-368 (zGFRα1^D2-D3+) (domain or fragment, UniProt Q98TT9 144-368, looked up)
chain: EPALAKENNCLNAAKACNLNDTCKKYRSAYISPCTSRVSTAEVCNKRKCHKALRQFFDKVPPKHSYGMLYCSCPLGDQSACSERRRQTIVPACSYEDKERPNCLTLQVSCKTNYICRSRLADFFTNCQPEPLSLSGCLKENYADCLLSYSGLIGTVMTPNYLRSPKISVSPFCDCSSSGNSKEECDRFTEFFTDNACLRNAIQAFGNGTDVSVWHPMPPVQTTTS
notes: GFRα1a, zebrafish, residues 144-368 (D2-D3 and part of the C-tail, lacking D1); also called zGFRα1^144-368; source: Expi293F, secreted; purified (Ni-NTA, SEC) or co-expressed with zGDNF^mat and co-purified; not shown: His6, C-terminal, kept
B10: human GFRα1 residues 150-424 (hGFRα1^D2-CT) (domain or fragment)
chain: KGNNCLDAAKACNLDDICKKYRSAYITPCTTSVSNDVCNRRKCHKALRQFFDKVPAKHSYGMLFCSCRDIACTERRRQTIVPVCSYEEREKPNCLNLQDSCKTNYICRSRLADFFTNCQPESRSVSSCLKENYADCLLAYSGLIGTVMTPNYIDSSSLSVAPWCDCSNSGNDLEECLKFLNFFKDNTCLKNAIQAFGNGSDVTVWQPAFPVQTTTATTTTALRVKNKPLGPAGSENEIPTHVLPPCANLQAQKLKSNVSGNTHLCISNGNYEKEG

Legend:
[1] = biological target: the molecule itself; experiment: crystal structure; zGDNF^mat-zGFRα1^D1-D3 complex at 2.5 mg/ml in 20 mM Tris pH 7.0, 100 mM NaCl, 1 mM CaCl2; sitting drop, 22 °C; D1 clipped during crystallisation; 2.65 Å, P2_1, ten copies in the asymmetric unit
[2] = biological target: T1, human GDNF structured region, residues …; experiment: SPR
[3] = biological target: T2, full length, GPI-anchored rat GFRα1 (mGFRα1^FL; HA-rGFRα1^1-468) (rat)
[4] = biological target: B9; experiment: native gel or EMSA; blue native PAGE (3-12% Bis-Tris) of Ni2+-NTA purified co-expressed zGDNF^mat-zGFRα1 samples, 2 mg/ml, 10 mM HEPES pH 7.5, 130 mM NaCl, 1 mM CaCl2; time points; details: both partners purified
[5] = biological target: the molecule itself; experiment: negative-stain electron microscopy; zGDNF^mat-zGFRα1^D2-D3+ cross-linked with 0.1% glutaraldehyde, SEC (Superose 6 Increase) in 20 mM HEPES pH 7.5, 130 mM NaCl, ~700 kDa fraction imaged; reconstruction at 30 Å

| Binder | Kd [2] [nM] | other results |
| --- | --- | --- |
| B1 | – | stoichiometry N [1]: 5 protomers in each ring |
| B2 | 48 | – |
| B3 | 32 | – |
| B4 | 91 | – |
| B5 | 33 | – |
| B6 | – | HEK293 cell adhesion assay: proportion of cell clusters of mGFRα1^FL-expressing cells after rat GDNF (200 ng/ml) [3]: 5 fold |
| B7 | – | stoichiometry N [1]: 2 protomers in each covalent dimer |
| B8 | – | stoichiometry N [4]: 1 zGDNF^mat protomers per zGFRα1 (10:10) |
| B9 | – | binding result [5]: binds |
| B10 | 71 | – |
